Common to all, as to experiment: purified protein
For data set [1], the system named is Cc1cn([C@H]2C[C@H](O)[C@@H](COP(=O)(O)O)O2)c(=O)[nH]c1=O. The following applies: 50 mM Tris-HCl pH 9, 5 mM KCl, 135 mM NaCl, 10 mM glucose, 10 mM MgCl2, 0-2 mM substrate.
Data set [2] has as its system Nc1ccn([C@@H]2O[C@H](COP(=O)(O)O)[C@@H](O)[C@H]2O)c(=O)n1. The following applies: 50 mM Tris-HCl pH 9, 5 mM KCl, 135 mM NaCl, 10 mM glucose, 10 mM MgCl2, 0-2 mM substrate.
For data set [3], the system named is Nc1nc2c(ncn2[C@@H]2O[C@H](COP(=O)(O)O)[C@@H](O)[C@H]2O)c(=O)[nH]1. The following applies: 50 mM Tris-HCl pH 9, 5 mM KCl, 135 mM NaCl, 10 mM glucose, 10 mM MgCl2, 0-2 mM substrate.
In data set [4] the test system is Nc1ncnc2c1ncn2[C@@H]1O[C@H](COP(=O)(O)O)[C@@H](O)[C@H]1O. The following applies: 50 mM Tris-HCl pH 9, 5 mM KCl, 135 mM NaCl, 10 mM glucose, 10 mM MgCl2, 0-2 mM substrate.
Data set [5] concerns O=[N+]([O-])c1ccc(OP(=O)(O)O)cc1. The following applies: 50 mM Tris-HCl pH 9, 5 mM KCl, 135 mM NaCl, 10 mM glucose, 10 mM MgCl2.

“rSmAP (recombinant Schistosoma mansoni alkaline phosphatase) (Schistosoma mansoni)”: the Km in data set [1] was 595 µM; in data set [2], 630 ± 20 µM; in data set [3], 640 ± 11 µM; in data set [4], 650 µM; in data set [5] it was 288 ± 12 µM.

Source of the values: publication PMC6077193, “Intravascular Schistosoma mansoni Cleave the Host Immune and Hemostatic Signaling Molecule Sphingosine-1-Phosphate via Tegumental Alkaline Phosphatase” (Frontiers in Immunology, 2018).
